From publication PMC7293249
Substitutions are numbered along the chain they refer to. Blank lines part the entries; values can stand above or below the binder they belong to.

How the values were obtained:
[1] = molecular target: human activated protein C (human) (UniProt P04070)
[2] = molecular target: human activated protein C (human) (UniProt P04070); remark: listed apart in the source
[3] = molecular target: human activated protein C (human) (UniProt P04070); remark: listed apart in the source
[4] = molecular target: human activated protein C (human) (UniProt P04070); remark: listed apart in the source
[5] = molecular target: human activated protein C (human) (UniProt P04070); assay: ELISA; hAPC or hPC coated directly on Maxisorp plates at 100 ng/well in PBS/Ca2+; antibodies titrated, 1 h at RT; detection with HRP anti-human Fc
[6] = molecular target: human activated protein C (human) (UniProt P04070); assay: ELISA; APC-binding ELISA of the purified Fabs on human APC and Gla-domainless APC; format not told

Protac-aPTT in FVIII-antibody-treated normal human plasma, IC50 [1]: 5 nM | Protac-aPTT in hemophilia A plasma, inhibition of APC activity, IC50 [1]: 5 nM | Protac-aPTT in hemophilia A plasma, maximal inhibition of APC activity [1]: 87% | TM–TGA in normal human plasma, increase of thrombin generation, EC50 [2]: 38 nM | inhibition of APC amidolytic activity (Spectrozyme PCa), IC50 [3]: 4.8 nM | maximal inhibition of APC amidolytic activity (Spectrozyme PCa), mAb 0.5-500 nM [3]: 98% | Protac-aPTT in normal human plasma, inhibition of APC anticoagulant activity, IC50 [4]: 7 nM | Protac-aPTT in normal human plasma, maximal inhibition of APC anticoagulant activity [4]: 93% | EC50 [5]: 0.4 nM
B1: type I anti-APC mAb TPP-2312 (BAY1316786) (antibody, V domains shown)
VH: EVQLLESGGGLVQPGGSLRLSCAASGFTFSSYWMSWVRQAPGKGLEWVSGVSWNGARTHYADSVKGRFTISRDNSKNTLYLQMNSLRAEDTAVYYCALTGRSGWMRFPNWFDPWGQGTLVTVSS
VL: QSVLTQPPSVSGAPGQRVTISCTGSSSNIGAAYDVHWYQQLPGTAPKLLIYGNNKRPSGVPDRFSGSKSGTSASLAITGLQAEDEADYYCQSYDSSLSGSVFGGGTKLTVL

EC50 [6]: 2 to 4 nM
B2: C25K23Fab (type I Fab, TTP-2781) (Fab, V domains shown)
VH: B1 VH with A56S, S123T
VL: B1 VL with V10A, A13T, T78S, Q81R, A82S
